The text below walks through data of patent publication US20220363763A1 (ABL BIO, published 2022).

The target in test [1] is T1, human PD-L1-Fc protein (human, UniProt Q9NZQ7 19-239).
T1 construct: Coated on ELISA plates; also called huPD-L1; not shown: Fc part
Kind of test: ELISA on coated human PD-L1-Fc. As for the experimental part:
(§1) To evaluate the binding of humanized antibodies to huPD-L1, Mouse PD-L1, Rat PD-L1, […], the antibodies were performed for the ELISA testing. Briefly, microtiter plates were coated with human, mouse, rat and rhesus PD-L1-Fc protein at 1 μg/ml in PBS, 100 μl/well at […] overnight, then blocked with […] of 5% BSA. Three-fold dilutions of humanized antibodies starting from 1 μg/ml were added to each well and incubated for 1-2 hours at RT. The plates were washed with PBS/Tween and then incubate with […] antibody conjugated with Horse Radish Peroxidase (HRP) for 1 hour at RT. After washing, the plates were developed with TMB substrate and analyzed by spectrophotometer at OD 450-630 nm. The Hu1210-41 antibody can bind to rhesus PD-L1 with lower affinity and cannot bind to rat and mouse PD-L1 (FIG. 8 & Table 12).

For test [2], the target named is T2, human PD-L1-his taq protein (human, UniProt Q9NZQ7 19-239, limits assumed).
T2 construct: also called recombinant PD-L1 protein; recombinant human PD-L1; not shown: his tag
Kind of test: SPR Biacore T200, antibody captured, PD-L1-his injected. In outline:
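HL1210-3 mouse mAb was captured via anti-mouse Fc antibody on a CM5 chip, then serially diluted PD-L1-his was injected for 3 min […]. Dissociation was followed for 900 s.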
In general terms: SPR reads the build-up and loss of mass on a sensor chip optically.

For test [3], the target named is T1, human PD-L1-Fc protein. Nature of the test: receptor blocking assay, panel PD1; blocked ligand biotin-labeled human PD-1-Fc; by paragraph 296 an ELISA on coated PD-L1-Fc, though the sheet is headed 'Cell based receptor blocking assay'. Summed up: (§2)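 This protein-based receptor blocking ELISA used plates coated overnight at 4° C with human PD-L1-Fc at 1 μg/ml in PBS (100 μl/well), blocked with 5% BSA for 2 hr at 37° C. 50 μl biotin-labeled human PD-1-Fc or B7-1 protein plus 50 μl of 5-fold antibody dilutions starting from 100 nM were incubated for 1 hour at 37° C. Streptavidin-HRP was then added for 1 hour at 37° C. IC50 was read off the curve.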
Background: ELISA stands for enzyme-linked immunosorbent assay.

A further test concerns the target T3, rhesus PD-L1-Fc protein (rhesus, UniProt F6PJN1 19-239).
T3 construct: not shown: Fc part
Kind of test: ELISA on coated rhesus PD-L1-Fc. As for the experimental part:
as §1

The target in test [4] is T1, human PD-L1-Fc protein. Kind of test: receptor blocking assay, panel B7-1; blocked ligand biotin-labeled B7-1 protein; by paragraph 296 an ELISA on coated PD-L1-Fc, though the sheet is headed 'Cell based receptor blocking assay'. Summed up:
as §2

The next test deals with T4, B7-1 protein (human, UniProt P33681 35-242, limits assumed, biotin-labeled in the blocking assay).
T4 construct: also called human B7-1; biotin-labeled B7-1
T4 sequence (looked up): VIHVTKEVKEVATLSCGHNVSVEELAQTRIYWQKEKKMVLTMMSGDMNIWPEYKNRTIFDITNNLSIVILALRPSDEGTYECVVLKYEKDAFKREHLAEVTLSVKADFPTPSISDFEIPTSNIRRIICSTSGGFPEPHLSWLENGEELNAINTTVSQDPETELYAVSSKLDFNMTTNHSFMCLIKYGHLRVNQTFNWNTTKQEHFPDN
Kind of test: ELISA.

In a further test the target is BTLA (human, UniProt Q7Z6A9 31-157, limits assumed). Kind of test: ELISA.
For the next test, the target named is T5, B7-H2 (human, UniProt O75144 19-258, limits assumed).
T5 sequence (looked up): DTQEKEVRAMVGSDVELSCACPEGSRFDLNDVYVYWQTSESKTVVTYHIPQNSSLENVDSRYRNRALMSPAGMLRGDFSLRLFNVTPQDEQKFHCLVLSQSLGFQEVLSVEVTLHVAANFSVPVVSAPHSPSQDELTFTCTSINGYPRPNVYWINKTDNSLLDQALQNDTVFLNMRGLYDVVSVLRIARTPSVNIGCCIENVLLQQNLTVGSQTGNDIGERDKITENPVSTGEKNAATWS
Kind of test: ELISA.

The next test deals with T6, B7-DC (human, UniProt Q9BQ51 20-220, limits assumed).
T6 sequence (looked up): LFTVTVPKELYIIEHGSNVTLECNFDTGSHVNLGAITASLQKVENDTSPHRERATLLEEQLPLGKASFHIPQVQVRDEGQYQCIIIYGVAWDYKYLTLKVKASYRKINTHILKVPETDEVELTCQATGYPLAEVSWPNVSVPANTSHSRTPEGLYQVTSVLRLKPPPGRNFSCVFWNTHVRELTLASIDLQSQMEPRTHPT
Nature of the test: ELISA.

The next test deals with T7, B7-2 (human, UniProt P42081 24-247, limits assumed).
T7 sequence (looked up): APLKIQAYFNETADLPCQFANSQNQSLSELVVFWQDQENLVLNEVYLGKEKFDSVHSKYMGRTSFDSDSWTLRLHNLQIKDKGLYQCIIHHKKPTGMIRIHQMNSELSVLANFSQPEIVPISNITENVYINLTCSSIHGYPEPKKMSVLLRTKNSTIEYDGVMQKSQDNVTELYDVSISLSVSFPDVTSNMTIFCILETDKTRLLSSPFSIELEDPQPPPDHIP
Nature of the test: ELISA.

A further test has as its target CD28 (human, UniProt P10747 19-152). Kind of test: ELISA.
A further test addresses T8, ICOS (human, UniProt Q9Y6W8 21-140, limits assumed).
T8 sequence (looked up): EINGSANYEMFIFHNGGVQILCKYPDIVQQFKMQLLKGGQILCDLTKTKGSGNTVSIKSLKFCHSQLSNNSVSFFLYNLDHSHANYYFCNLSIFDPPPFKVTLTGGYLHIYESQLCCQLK
Kind of test: ELISA.

In another test the target is CTLA4 (human, UniProt P16410 36-161, limits assumed). Nature of the test: ELISA.
Another test has as its target T9, huPD-1 (human, UniProt Q15116 25-167, limits assumed, biotin-labeled in the FACS blocking assays).
T9 construct: also called biotin-labeled huPD-1; Bio-PD1
Kind of test: ELISA.

Test [5] concerns the target T1, human PD-L1-Fc protein. Kind of test: ELISA on coated human PD-L1-Fc; table row 'Human PD-L1', no unit in the table, x axis Ab(nM); Table 12 of the text prints 0.215 nM. As to the method:
as §1

Another test deals with T10, mouse PD-L1-Fc protein (mouse, UniProt Q9EP73 19-238, limits assumed).
T10 construct: not shown: Fc part
Nature of the test: ELISA on coated PD-L1-Fc. As for the experimental part:
as §1

For another test, the target named is rat PD-L1-Fc protein (rat, UniProt D4AE25 19-239). Nature of the test: ELISA on coated PD-L1-Fc. As to the method:
as §1

T2 sequence (Q9NZQ7 19-239 limits assumed): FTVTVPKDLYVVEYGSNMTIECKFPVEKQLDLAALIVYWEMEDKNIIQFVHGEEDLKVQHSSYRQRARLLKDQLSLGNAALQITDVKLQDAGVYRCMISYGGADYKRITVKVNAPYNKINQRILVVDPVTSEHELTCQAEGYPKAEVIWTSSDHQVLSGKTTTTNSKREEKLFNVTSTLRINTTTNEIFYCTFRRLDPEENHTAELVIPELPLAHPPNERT
T1 sequence (Q9NZQ7 19-239 limits assumed): as above
T10 sequence (Q9EP73 19-238 limits assumed): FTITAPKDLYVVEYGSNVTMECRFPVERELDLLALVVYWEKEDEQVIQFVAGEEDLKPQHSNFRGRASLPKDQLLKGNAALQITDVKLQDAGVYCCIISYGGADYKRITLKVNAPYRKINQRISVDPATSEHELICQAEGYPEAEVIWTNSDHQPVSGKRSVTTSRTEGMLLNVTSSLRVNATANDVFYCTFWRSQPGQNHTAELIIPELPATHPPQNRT
T9 sequence (Q15116 25-167 limits assumed): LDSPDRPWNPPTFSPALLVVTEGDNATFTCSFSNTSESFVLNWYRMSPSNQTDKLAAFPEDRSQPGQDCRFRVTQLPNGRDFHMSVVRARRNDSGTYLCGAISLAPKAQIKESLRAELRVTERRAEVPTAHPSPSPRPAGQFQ
CTLA4, sequence (P16410 36-161 limits assumed): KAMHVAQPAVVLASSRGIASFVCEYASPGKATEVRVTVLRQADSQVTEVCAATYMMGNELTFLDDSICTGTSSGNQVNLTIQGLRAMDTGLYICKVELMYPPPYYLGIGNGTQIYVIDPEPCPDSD
rat PD-L1-Fc protein, sequence (D4AE25 entry or part of it limits assumed): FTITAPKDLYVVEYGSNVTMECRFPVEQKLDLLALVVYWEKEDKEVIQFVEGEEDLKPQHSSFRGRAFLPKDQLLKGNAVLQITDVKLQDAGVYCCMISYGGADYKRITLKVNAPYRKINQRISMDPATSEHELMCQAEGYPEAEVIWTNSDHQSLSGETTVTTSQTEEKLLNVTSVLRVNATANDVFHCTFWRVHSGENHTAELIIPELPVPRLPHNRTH

B1: Hu1210-41 (antibody, V domains shown)
VH: EVQLVESGGGLVQPGGSLRLSCAASGFTFSSYDMSWVRQAPGKSLEWVATISDAGGYIYYSDSVKGRFTISRDNAKNSLYLQMNSLRDEDTAVYICAREFGKRYALDYWGQGTTVTVSS
VL: DIQMTQSPSSLSASVGDRVTITCKASQDVTPAVAWYQQKPGKAPKLLIYSTSSRYTGVPSRFSGSGSGTDFTFTISSLQPEDIATYYCQQHYTTPLTFGQGTKLEIK
notes: Hu1210 VH.4d x Vk.1; human gamma 1 / kappa constant domains; also called H12; Hu1210 VH.4d x Hu1210 Vk.1
For B1, the EC50 with human PD-L1-Fc protein [1] was found to be 0.215 nM; with rhesus PD-L1-Fc protein, 0.628 nM; with human PD-L1-Fc protein [5], 0.21 nM. This molecule yielded a Kd in test [2] of 0.378 nM. Moreover, the koff in test [2] came out at 3.46e-05 s⁻¹. In test [2], this molecule came in with a kon of 91700 M⁻¹ s⁻¹. The “IC50 (read off the curve)” value was ~1 nM with human PD-L1-Fc protein [3] and ~0.9 nM with human PD-L1-Fc protein [4]. The binding result with B7-1 protein, with BTLA, in the test with B7-H2, in the test with B7-DC, in the test with B7-2 and with CD28 was “no binding” in each case. The binding result is given as “no binding” with ICOS; “no binding” with CTLA4; “no binding” with huPD-1; “no binding (tested: 1 µg/ml (highest concentration))” in the test with mouse PD-L1-Fc protein; “no binding (tested: 1 µg/ml (highest concentration))” with rat PD-L1-Fc protein.

By EC50 is commonly meant the concentration needed to bring the measured effect to its halfway point. A word on the Kd: it is the constant that tells how readily two partners part at equilibrium. Broadly, the koff is the rate constant with which the complex falls apart. The low end stands for slow dissociation, the high end for fast dissociation. In general, kon refers to the second-order rate constant of association. A lower kon goes with slower complex formation.
